# Test results from paper PMC11976344.
# Ends that are not written are not given here.
# Key:
# CCL8 [1] = target: CCL8 (UniProt P80075)
# CCL8 [2] = target: CCL8 (UniProt P80075); remark: listed apart in the source
# Chain of UniProt P80075 (P80075 24-99): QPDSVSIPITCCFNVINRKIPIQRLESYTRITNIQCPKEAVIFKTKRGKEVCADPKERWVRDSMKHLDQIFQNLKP
Molecule,IC50 of inhibition of CCL8-induced THP1 cell migration (CCL8 [1]) [nM],IC50 of inhibition of CCL8-driven THP-1 cell migration (dose-response peptide titration) (CCL8 [2]) [nM]
Evasin P672 (natural protein),4.6 to 10,
YEDEDYEDFFKPVTCYF (also: dimer via disulfide between the Cys of the two copies) [BK1.3 (17-mer synthetic dimeric peptide derived from Evasin P672)],,4.2
